Source: US7648964B2, “Use of lacritin in promoting ocular cell survival” (University of Virginia Patent Foundation, priority 2004, dated 2010)

T1: syndecan-1 (Homo sapiens, UniProt P18827)
T1 construct: expressed in transfected cells; host or cells: HEK293 (syndecan-1); E. coli ER2566 (lacritin-intein)
T1 sequence (P18827 23-310): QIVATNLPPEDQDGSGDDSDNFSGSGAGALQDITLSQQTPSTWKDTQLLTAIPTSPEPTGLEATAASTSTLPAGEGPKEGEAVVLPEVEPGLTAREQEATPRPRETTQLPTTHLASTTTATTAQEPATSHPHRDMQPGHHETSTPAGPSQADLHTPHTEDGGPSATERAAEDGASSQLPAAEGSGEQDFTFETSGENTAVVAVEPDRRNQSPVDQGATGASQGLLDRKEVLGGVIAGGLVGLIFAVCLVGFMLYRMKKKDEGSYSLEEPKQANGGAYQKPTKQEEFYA


How the values were obtained:
[1] = system: human corneal epithelial (HCE) cell line; assay: TNF-α-induced cell death in HCE cells (MTT cell viability); type: cell-based; details: for protection from TNF-induced cell death (viability): 18 or 30 hours, FIG. 10
Procedure: Lacritin-induced proliferation and calcium signaling was studied in the human corneal epithelial (HCE) cell line. HCE cells were grown at 37° C. in DMEM F/12 supplemented with 10% FBS and 50 μg/ml gentamicin. Each experiment was done in a dose- and time-dependent manner using TNF-α (5-20 ng/ml) and lacritin (1-10 nM). Cell viability was measured spectrophotometrically at an absorbance of 570 nm using the MTT assay. Caspase-8 activity was detected fluorometrically by measuring cleavage of the fluorogenic substrate IETD-pNA at an excitation wavelength of 405 nm. Lacritin-induced cell proliferation was studied by H3-thymidine incorporation and via fluorescence-based detection of PKC, PLC and cAMP. Calcium signaling was detected by confocal microscopy of Fluo-4 loaded cells.

syndecan-1 = target: T1, syndecan-1; assay: Competitive binding assay of lacritin-syndecan-1 binding; details: competitive binding assays
Excerpt: Biotinylated cell surface proteins were applied to lacritin affinity columns. After washing extensively in physiological salt-containing buffer, bound protein was eluted with 1 M NaCl, and identified with avidin-peroxidase using an ECL blot method. In controls, columns lacking lacritin were used. […] 293T cells stably transfected with human syndecan-2 or −4 were kindly provided by Dr. Atsushi Utani (Chiba University). A series of lacritin C-terminal and N-terminal deletion mutants were generated. Pull down binding assays involved incubation of intein-tagged lacritin or intein deletion mutants with lysates of untransfected or transfected cells followed by precipitation and SDS PAGE. Immunolocalization of syndecan-1 in human lacrimal glands was performed using anti-human syndecan-1 antibody (CD138).
The first of approximately four bands repeatedly eluted from lacritin affinity column was determined by sequencing to be syndecan-1. In pull-down assays, lacritin bound mammalian syndecan-1, but not syndecan-2 or 4. The binding appeared to be independent of heparan sulfate side chains, in keeping with lack of lacritin binding to heparin (previously known). Deletion of lacritin's C-terminal 25 but not N-terminal 5, 10, or 24 amino acids eliminated binding. […] Syndecan-1 was detected in ‘near apical’ and basolateral plasma membranes in human lacrimal gland.

[2] = system: human salivary ductal (HSG) cells; assay: 3H-thymidine uptake mitogenesis assay; type: cell-based
Procedure: For phosphotyrosine blotting and mitogenesis assays, cells in serum-containing media were seeded overnight in 24-well plates at a density of 0.5×10^5 cells/mm^2 corresponding to 20-30% confluency after cell attachment, incubated in serum-free media without supplements for 24 h (phosphotyrosine) or washed with serum-free media without supplements three times (mitogenesis) and incubated with lacritin (1-1000 nM), or positive controls EGF (1.6 nM) and 10% fetal bovine serum, or negative controls bovine serum albumin or no additive in serum-free media without supplements for the indicated times (phosphotyrosine) or 30 h (mitogenesis). For phosphotyrosine assays, cells were extracted in 1% NP40 containing sodium vanadate (2 mg/ml), DTT (5 mg/ml), protease inhibitors, 50 mM HEPES, 100 mM NaCl, and 2 mM EDTA; then separated by 10% SDS PAGE, transferred and blotted. The following antibodies (Cell Signaling Technology, Beverly Mass.) were tested: antiphosphotyrosine antibody (P-Tyr-100), anti-phospho-PKC αβII, anti-PKCα, anti-phospho-PKCδ, anti-phospho-PKC (pan), anti-p44/42 MAPK, anti-phospho-Raf, anti-phospho-SAPK/JNK, anti-phospho-p38 Map kinase, anti-phospho-Raf, anti-phospho-Akt, anti-phospho-CaMKII, anti-phospho-MARCKS, or anti-tubulin (loading control). After washing, bound antibodies were detected with peroxidase-labeled secondary antibody and ECL. With the exception of at least nine proteins in the P-Tyr-100 blot (FIG. 1), none of the effectors tested above appeared to be phospho-activated during lacritin signaling (not shown). For mitogenesis (Hussaini et al., '00), [^3H]-thymidine (2 mCi/ml) was added for the next 6 h. Incorporation was stopped with ice-cold phosphate buffered saline and followed by addition of cold and then room temperature trichloracetic acid (10%) for 10 min each, washing of cells with phosphate buffered saline, solubilization with 1 N sodium hydroxide, neutralization with 1 N hydrochloric acid, addition of scintillation fluid and then quantitation in a scintillation counter. To deplete PKCα in HSG cells, a pool of four PKCα-specific siRNAs (100 nM) were transfected via LipofectAMINE 2000 in Opti-MEMI Reduced Serum Medium (Invitrogen, Grand Island N.Y.) without serum and antibiotics according to manufacturer's instructions. Each of the four siRNAs was also individually transfected. In negative controls, cells were transfected with a pool of four lamin-specific siRNAs (Upstate LLC, Charlottesville Va.; Dharmacon Inc, Lafayette Colo.). Seventy-two hours post-transfection, mitogenesis was assessed by co-addition of 10 […] lacritin and [^3H]-thymidine (2 mCi/ml) (Amersham, Piscataway N.J.) for 24 hrs. PKCα depletion was confirmed by Western blotting.

Molecule | protection from TNF-induced cell death (viability) [1] | effect on TNF-α-induced cell death ([1]; lacritin 10 nM pretreatment) | inhibition of binding (syndecan-1) | proliferation in nominally calcium-free medium [2] | time to detectable 3H-thymidine uptake ([2]; not shown) | level of proliferation at optimal dose ([2]; vs 10% FBS positive control) | mitogenic activity of deletion constructs ([2]; 10 nM, compared to intact lacritin)
Cn1c2ccccc2c2c3c(c4c5ccccc5n(CCC#N)c4c21)CNC3=O [Go 6976] | no effect on viability loss |  |  |  |  |  | 
lacritin: recombinant human lacritin from E. coli; mature 119 residue fragment (SEQ ID NO:10) of native lacritin SEQ ID NO:4 (protein, listed as Homo sapiens) EDASSDSTGADPAQEAGTSKPNEEISGPAEPASPPETTTTAQETSAAAVQGTAKVTSSRQELNPLKSIVEKSILLTEQALAKAGKGMHGGVPGGKQFIENGSEFAQKLLKKFSLLKPWA | protect | attenuated | inhibited binding | proliferated in a bell-shaped lacritin dose-dependent manner | Within two hours | matching the FBS positive control | 
N-24: deletion mutant comprising a deletion of the 24 amino terminal amino acids of lacritin (protein, homo sapiens, deletion mutant comprising a deletion of the 24 amino terminal amino acids of lacritin) DSTGADPAQEAGTSKPNEEISGPAEPASPPETTTTAQETSAAAVQGTAKVTSSRQELNPLKSIVEKSILLTEQALAKAGKGMHGGVPGGKQFIENGSEFAQKLLKKFSLLKPWA | protect |  | inhibited binding |  |  |  | active
